The experiment concerns the target 53BP1 fragment (a.a. 1221-1718) fused to an adenylate cyclase fragment (two-hybrid) (UniProt Q12888). As to the kind of experiment: cell-based or functional assay.
For the substance “i53 + P38M two-hybrid fusion (designed binder)”, the Experiment 1 Average Enrichment is -0.31 log2, the Experiment 1 Rep 1 Enrichment was -2.07 log2, the Experiment 1 Rep 2 Enrichment was found to be 1.45 log2 and the Experiment 2 Average Enrichment was 1.25 log2. Further, the Experiment 2 Rep 1 Enrichment was 1.37 log2 and the Experiment 2 Rep 2 Enrichment was 1.13 log2.

Regarding “i53 + E16T two-hybrid fusion (designed binder)”, the Experiment 1 Average Enrichment came to 0.88 log2, the Experiment 1 Rep 1 Enrichment was 1.12 log2, the Experiment 1 Rep 2 Enrichment stood at 0.64 log2 and the Experiment 2 Average Enrichment is 0.3 log2. The substance further came in with an Experiment 2 Rep 1 Enrichment of 0.27 log2 and an Experiment 2 Rep 2 Enrichment of 0.33 log2.

As for “i53 + A28E two-hybrid fusion (designed binder)”, the Experiment 1 Average Enrichment worked out at 0.31 log2, the Experiment 1 Rep 1 Enrichment was 0.23 log2, the Experiment 1 Rep 2 Enrichment amounted to 0.4 log2 and the Experiment 2 Average Enrichment came to 0.42 log2. In addition, the Experiment 2 Rep 1 Enrichment worked out at 0.53 log2 and the Experiment 2 Rep 2 Enrichment is 0.32 log2.

For “i53 + S20A two-hybrid fusion (designed binder)”, the Experiment 1 Average Enrichment is 0.14 log2, the Experiment 1 Rep 1 Enrichment is 0.3 log2, the Experiment 1 Rep 2 Enrichment is -0.02 log2 and the Experiment 2 Average Enrichment is -0.26 log2. The same substance yielded an Experiment 2 Rep 1 Enrichment of -0.26 log2 and an Experiment 2 Rep 2 Enrichment of -0.25 log2.

Substance “i53 + N25R two-hybrid fusion (designed binder)” yielded an Experiment 1 Average Enrichment of 0.31 log2, an Experiment 1 Rep 1 Enrichment of 0.25 log2, an Experiment 1 Rep 2 Enrichment of 0.36 log2 and an Experiment 2 Average Enrichment of 0.29 log2. For the same substance, the Experiment 2 Rep 1 Enrichment worked out at 0.25 log2 and the Experiment 2 Rep 2 Enrichment came to 0.34 log2.

“i53 + D32E two-hybrid fusion (designed binder)”: the Experiment 1 Average Enrichment stood at 0.21 log2, the Experiment 1 Rep 1 Enrichment was found to be 0.41 log2, the Experiment 1 Rep 2 Enrichment is 0 log2 and the Experiment 2 Average Enrichment is -0.19 log2. In addition, the Experiment 2 Rep 1 Enrichment is -0.11 log2 and the Experiment 2 Rep 2 Enrichment is -0.28 log2.

In turn, “i53 + M1W two-hybrid fusion (designed binder)” yielded an Experiment 1 Average Enrichment of 1.83 log2, an Experiment 1 Rep 1 Enrichment of 1.95 log2, an Experiment 1 Rep 2 Enrichment of 1.71 log2 and an Experiment 2 Average Enrichment of 0.96 log2. This substance displayed an Experiment 2 Rep 1 Enrichment of 0.99 log2 and an Experiment 2 Rep 2 Enrichment of 0.92 log2.

“i53 + D32R two-hybrid fusion (designed binder)” displayed an Experiment 1 Average Enrichment of 0.03 log2, an Experiment 1 Rep 1 Enrichment of 0.61 log2, an Experiment 1 Rep 2 Enrichment of -0.54 log2 and an Experiment 2 Average Enrichment of -0.46 log2. Also, the Experiment 2 Rep 1 Enrichment was -0.53 log2 and the Experiment 2 Rep 2 Enrichment was -0.39 log2.

The substance “i53 + T7I two-hybrid fusion (designed binder)” showed an Experiment 1 Average Enrichment of 1.66 log2, an Experiment 1 Rep 1 Enrichment of 1.7 log2, an Experiment 1 Rep 2 Enrichment of 1.63 log2 and an Experiment 2 Average Enrichment of 1.03 log2. The same substance gave an Experiment 2 Rep 1 Enrichment of 1.04 log2 and an Experiment 2 Rep 2 Enrichment of 1.02 log2.

“i53 + R74Q two-hybrid fusion (designed binder)” gave an Experiment 1 Average Enrichment of 2.29 log2, an Experiment 1 Rep 1 Enrichment of 2.6 log2, an Experiment 1 Rep 2 Enrichment of 1.98 log2 and an Experiment 2 Average Enrichment of 1.54 log2. The substance further had an Experiment 2 Rep 1 Enrichment of 1.56 log2 and an Experiment 2 Rep 2 Enrichment of 1.52 log2.

“i53 + S20C two-hybrid fusion (designed binder)” returned an Experiment 1 Average Enrichment of -0.08 log2, an Experiment 1 Rep 1 Enrichment of -0.36 log2, an Experiment 1 Rep 2 Enrichment of 0.2 log2 and an Experiment 2 Average Enrichment of 0.05 log2. The Experiment 2 Rep 1 Enrichment was -0.1 log2 and the Experiment 2 Rep 2 Enrichment was determined as 0.21 log2.

With “i53 + P38T two-hybrid fusion (designed binder)”, the Experiment 1 Average Enrichment amounted to 0.11 log2, the Experiment 1 Rep 1 Enrichment was found to be 0.95 log2, the Experiment 1 Rep 2 Enrichment is -0.72 log2 and the Experiment 2 Average Enrichment came to 0.92 log2. In addition, the Experiment 2 Rep 1 Enrichment was determined as 1.27 log2 and the Experiment 2 Rep 2 Enrichment was 0.58 log2.

“i53 + P69R two-hybrid fusion (designed binder)” displayed an Experiment 1 Average Enrichment of -1.93 log2, an Experiment 1 Rep 1 Enrichment of -2.27 log2, an Experiment 1 Rep 2 Enrichment of -1.59 log2 and an Experiment 2 Average Enrichment of 0.75 log2. The Experiment 2 Rep 1 Enrichment was found to be 0.2 log2 and the Experiment 2 Rep 2 Enrichment was 1.29 log2.

In turn, “i53 + Q31R two-hybrid fusion (designed binder)” had an Experiment 1 Average Enrichment of 0.15 log2, an Experiment 1 Rep 1 Enrichment of 0.66 log2, an Experiment 1 Rep 2 Enrichment of -0.37 log2 and an Experiment 2 Average Enrichment of -0.22 log2. Further, the Experiment 2 Rep 1 Enrichment came to 0.14 log2 and the Experiment 2 Rep 2 Enrichment was -0.58 log2.

Substance “i53 + D39G two-hybrid fusion (designed binder)” returned an Experiment 1 Average Enrichment of -0.21 log2, an Experiment 1 Rep 1 Enrichment of -0.2 log2, an Experiment 1 Rep 2 Enrichment of -0.22 log2 and an Experiment 2 Average Enrichment of 0.06 log2. The substance further yielded an Experiment 2 Rep 1 Enrichment of 0.6 log2 and an Experiment 2 Rep 2 Enrichment of -0.49 log2.

“i53 + D58S two-hybrid fusion (designed binder)” displayed an Experiment 1 Average Enrichment of 0.33 log2, an Experiment 1 Rep 1 Enrichment of 0.29 log2, an Experiment 1 Rep 2 Enrichment of 0.38 log2 and an Experiment 2 Average Enrichment of 0.21 log2. The substance also yielded an Experiment 2 Rep 1 Enrichment of 0.24 log2 and an Experiment 2 Rep 2 Enrichment of 0.17 log2.

“i53 + D52E two-hybrid fusion (designed binder)” yielded an Experiment 1 Average Enrichment of 0.28 log2, an Experiment 1 Rep 1 Enrichment of 0.43 log2, an Experiment 1 Rep 2 Enrichment of 0.14 log2 and an Experiment 2 Average Enrichment of 0.04 log2. The substance also registered an Experiment 2 Rep 1 Enrichment of -0.3 log2 and an Experiment 2 Rep 2 Enrichment of 0.37 log2.

As to “i53 + H68Q two-hybrid fusion (designed binder)”, the Experiment 1 Average Enrichment is 0.07 log2, the Experiment 1 Rep 1 Enrichment is 0.44 log2, the Experiment 1 Rep 2 Enrichment is -0.3 log2 and the Experiment 2 Average Enrichment is -0.5 log2. In addition, the Experiment 2 Rep 1 Enrichment is -0.62 log2 and the Experiment 2 Rep 2 Enrichment is -0.38 log2.

As to “i53 + E18T two-hybrid fusion (designed binder)”, the Experiment 1 Average Enrichment was -0.27 log2, the Experiment 1 Rep 1 Enrichment is -0.33 log2, the Experiment 1 Rep 2 Enrichment is -0.21 log2 and the Experiment 2 Average Enrichment was determined as 0.28 log2. In addition, the Experiment 2 Rep 1 Enrichment is 0.23 log2 and the Experiment 2 Rep 2 Enrichment was found to be 0.34 log2.

“i53 + I61L two-hybrid fusion (designed binder)” displayed an Experiment 1 Average Enrichment of 1.06 log2, an Experiment 1 Rep 1 Enrichment of 1.1 log2, an Experiment 1 Rep 2 Enrichment of 1.02 log2 and an Experiment 2 Average Enrichment of 0.67 log2. The same substance came in with an Experiment 2 Rep 1 Enrichment of 0.75 log2, an Experiment 2 Rep 2 Enrichment of 0.59 log2, a Percent GFP Positive Rep 1 of 15.9% and a Percent GFP Positive Rep 2 of 17.6%. Also, the Percent GFP Positive Rep 3 stood at 17.2%.

“i53 + K29Q two-hybrid fusion (designed binder)” came in with an Experiment 1 Average Enrichment of 0.05 log2, an Experiment 1 Rep 1 Enrichment of -0.21 log2, an Experiment 1 Rep 2 Enrichment of 0.31 log2 and an Experiment 2 Average Enrichment of -0.04 log2. Besides, the Experiment 2 Rep 1 Enrichment is -0.26 log2 and the Experiment 2 Rep 2 Enrichment came to 0.17 log2.

The substance “i53 + D39E two-hybrid fusion (designed binder)” showed an Experiment 1 Average Enrichment of 0.36 log2, an Experiment 1 Rep 1 Enrichment of 0.29 log2, an Experiment 1 Rep 2 Enrichment of 0.44 log2 and an Experiment 2 Average Enrichment of -0.18 log2. Moreover, the Experiment 2 Rep 1 Enrichment was -0.14 log2 and the Experiment 2 Rep 2 Enrichment was -0.23 log2.

“i53 + R74M two-hybrid fusion (designed binder)”: the Experiment 1 Average Enrichment worked out at 1.04 log2, the Experiment 1 Rep 1 Enrichment was found to be 1.16 log2, the Experiment 1 Rep 2 Enrichment was found to be 0.91 log2 and the Experiment 2 Average Enrichment is 0.68 log2. Moreover, the Experiment 2 Rep 1 Enrichment was 0.68 log2 and the Experiment 2 Rep 2 Enrichment is 0.68 log2.

“i53 + S49D two-hybrid fusion (designed binder)” had an Experiment 1 Average Enrichment of 0.41 log2, an Experiment 1 Rep 1 Enrichment of 0.11 log2, an Experiment 1 Rep 2 Enrichment of 0.71 log2 and an Experiment 2 Average Enrichment of 0.44 log2. For the same substance, the Experiment 2 Rep 1 Enrichment worked out at 0.39 log2 and the Experiment 2 Rep 2 Enrichment was determined as 0.49 log2.

On to “i53 + R74V two-hybrid fusion (designed binder)”, for which the Experiment 1 Average Enrichment was 1.51 log2, the Experiment 1 Rep 1 Enrichment stood at 1.58 log2, the Experiment 1 Rep 2 Enrichment turned out to be 1.44 log2 and the Experiment 2 Average Enrichment turned out to be 0.95 log2. Moreover, the Experiment 2 Rep 1 Enrichment came to 1.19 log2 and the Experiment 2 Rep 2 Enrichment was 0.7 log2.

On to “i53 + Q41Y two-hybrid fusion (designed binder)”, for which the Experiment 1 Average Enrichment is 0.68 log2, the Experiment 1 Rep 1 Enrichment amounted to 0.73 log2, the Experiment 1 Rep 2 Enrichment was 0.64 log2 and the Experiment 2 Average Enrichment worked out at 0.47 log2. The substance further displayed an Experiment 2 Rep 1 Enrichment of 0.4 log2 and an Experiment 2 Rep 2 Enrichment of 0.53 log2.

Regarding “i53 + S65K two-hybrid fusion (designed binder)”, the Experiment 1 Average Enrichment came out at 1.65 log2, the Experiment 1 Rep 1 Enrichment worked out at 1.61 log2, the Experiment 1 Rep 2 Enrichment stood at 1.69 log2 and the Experiment 2 Average Enrichment came to 0.63 log2. Also, the Experiment 2 Rep 1 Enrichment stood at 0.74 log2 and the Experiment 2 Rep 2 Enrichment is 0.53 log2.

The substance “i53 + K33Y two-hybrid fusion (designed binder)” displayed an Experiment 1 Average Enrichment of 1.02 log2, an Experiment 1 Rep 1 Enrichment of 0.63 log2, an Experiment 1 Rep 2 Enrichment of 1.41 log2 and an Experiment 2 Average Enrichment of 0.98 log2. In addition, the Experiment 2 Rep 1 Enrichment came out at 1.03 log2 and the Experiment 2 Rep 2 Enrichment amounted to 0.94 log2.

The values are drawn from patent publication US20230135471A1, “UBIQUITIN VARIANTS WITH IMPROVED AFFINITY FOR 53BP1” (Integrated DNA Technologies, Inc., priority 2021, published 2023).
